Measured values from patent publication US20190022241A1 (AbbVie / Abbott, published 2019).

T1: rat SEZ6 on RIN-m5F cells (rat, UniProt Q7TSK2 20-991 (mouse entry))
T1 construct: endogenous on RIN-m5F cells; also called rSEZ6
T1 chain: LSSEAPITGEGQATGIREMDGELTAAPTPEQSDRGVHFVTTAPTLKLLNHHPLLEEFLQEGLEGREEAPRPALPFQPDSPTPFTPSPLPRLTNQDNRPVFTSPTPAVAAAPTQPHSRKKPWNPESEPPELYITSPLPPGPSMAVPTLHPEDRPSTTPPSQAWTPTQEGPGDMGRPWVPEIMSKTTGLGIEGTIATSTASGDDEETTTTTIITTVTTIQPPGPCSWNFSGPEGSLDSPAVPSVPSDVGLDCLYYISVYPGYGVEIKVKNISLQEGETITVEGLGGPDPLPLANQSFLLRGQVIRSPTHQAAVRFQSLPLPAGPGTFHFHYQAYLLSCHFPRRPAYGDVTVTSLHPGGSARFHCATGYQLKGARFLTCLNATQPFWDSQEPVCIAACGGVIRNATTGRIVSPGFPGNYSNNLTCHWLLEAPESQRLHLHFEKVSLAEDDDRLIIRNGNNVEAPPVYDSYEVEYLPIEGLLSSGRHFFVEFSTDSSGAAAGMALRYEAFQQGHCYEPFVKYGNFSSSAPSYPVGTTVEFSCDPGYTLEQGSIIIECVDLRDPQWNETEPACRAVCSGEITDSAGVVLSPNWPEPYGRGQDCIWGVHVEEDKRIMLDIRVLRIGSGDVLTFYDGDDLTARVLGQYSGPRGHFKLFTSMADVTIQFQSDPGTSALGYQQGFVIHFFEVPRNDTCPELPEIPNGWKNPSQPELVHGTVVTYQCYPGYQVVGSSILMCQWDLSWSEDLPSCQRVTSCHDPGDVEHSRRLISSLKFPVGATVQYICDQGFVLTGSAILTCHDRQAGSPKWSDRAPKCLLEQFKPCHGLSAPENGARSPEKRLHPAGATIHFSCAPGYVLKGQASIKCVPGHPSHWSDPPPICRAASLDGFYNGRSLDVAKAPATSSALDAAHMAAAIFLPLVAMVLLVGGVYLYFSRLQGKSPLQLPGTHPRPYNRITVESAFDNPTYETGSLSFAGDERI

T2: human SEZ6L ECD-His (human, UniProt Q9BYH1 29-955)
T2 construct: whole entry named
T2 sequence: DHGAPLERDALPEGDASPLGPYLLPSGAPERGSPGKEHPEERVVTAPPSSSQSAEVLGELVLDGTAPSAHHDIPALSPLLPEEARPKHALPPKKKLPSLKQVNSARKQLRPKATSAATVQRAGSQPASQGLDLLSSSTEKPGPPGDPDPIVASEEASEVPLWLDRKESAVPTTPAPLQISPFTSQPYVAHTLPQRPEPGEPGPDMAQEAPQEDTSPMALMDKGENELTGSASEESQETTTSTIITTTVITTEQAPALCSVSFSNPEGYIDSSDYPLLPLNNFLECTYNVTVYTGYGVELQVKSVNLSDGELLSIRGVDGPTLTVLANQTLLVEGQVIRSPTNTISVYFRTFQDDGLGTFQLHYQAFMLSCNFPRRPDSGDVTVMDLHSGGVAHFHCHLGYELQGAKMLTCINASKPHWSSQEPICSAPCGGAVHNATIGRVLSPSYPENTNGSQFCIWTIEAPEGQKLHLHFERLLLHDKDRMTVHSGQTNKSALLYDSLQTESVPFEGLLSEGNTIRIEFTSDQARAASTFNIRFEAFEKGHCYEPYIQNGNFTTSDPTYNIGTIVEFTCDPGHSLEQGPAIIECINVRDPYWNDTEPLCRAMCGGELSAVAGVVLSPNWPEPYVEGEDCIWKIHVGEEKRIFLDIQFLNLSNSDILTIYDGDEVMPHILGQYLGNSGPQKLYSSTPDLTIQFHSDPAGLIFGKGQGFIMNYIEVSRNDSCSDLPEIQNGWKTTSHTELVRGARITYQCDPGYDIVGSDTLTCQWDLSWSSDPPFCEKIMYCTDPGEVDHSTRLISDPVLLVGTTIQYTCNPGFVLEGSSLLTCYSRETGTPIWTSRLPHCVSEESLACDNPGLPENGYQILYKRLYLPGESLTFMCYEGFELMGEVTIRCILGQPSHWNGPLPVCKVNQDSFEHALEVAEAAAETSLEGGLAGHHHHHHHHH

T3: extracellular domain of cynomolgus SEZ6 on yeast (cynomolgus, UniProt Q53EL9 23-925 (human entry))
T3 construct: yeast display; the whole entry is named; also called cSEZ6; cynomolgus SEZ6 ECD
T3 chain: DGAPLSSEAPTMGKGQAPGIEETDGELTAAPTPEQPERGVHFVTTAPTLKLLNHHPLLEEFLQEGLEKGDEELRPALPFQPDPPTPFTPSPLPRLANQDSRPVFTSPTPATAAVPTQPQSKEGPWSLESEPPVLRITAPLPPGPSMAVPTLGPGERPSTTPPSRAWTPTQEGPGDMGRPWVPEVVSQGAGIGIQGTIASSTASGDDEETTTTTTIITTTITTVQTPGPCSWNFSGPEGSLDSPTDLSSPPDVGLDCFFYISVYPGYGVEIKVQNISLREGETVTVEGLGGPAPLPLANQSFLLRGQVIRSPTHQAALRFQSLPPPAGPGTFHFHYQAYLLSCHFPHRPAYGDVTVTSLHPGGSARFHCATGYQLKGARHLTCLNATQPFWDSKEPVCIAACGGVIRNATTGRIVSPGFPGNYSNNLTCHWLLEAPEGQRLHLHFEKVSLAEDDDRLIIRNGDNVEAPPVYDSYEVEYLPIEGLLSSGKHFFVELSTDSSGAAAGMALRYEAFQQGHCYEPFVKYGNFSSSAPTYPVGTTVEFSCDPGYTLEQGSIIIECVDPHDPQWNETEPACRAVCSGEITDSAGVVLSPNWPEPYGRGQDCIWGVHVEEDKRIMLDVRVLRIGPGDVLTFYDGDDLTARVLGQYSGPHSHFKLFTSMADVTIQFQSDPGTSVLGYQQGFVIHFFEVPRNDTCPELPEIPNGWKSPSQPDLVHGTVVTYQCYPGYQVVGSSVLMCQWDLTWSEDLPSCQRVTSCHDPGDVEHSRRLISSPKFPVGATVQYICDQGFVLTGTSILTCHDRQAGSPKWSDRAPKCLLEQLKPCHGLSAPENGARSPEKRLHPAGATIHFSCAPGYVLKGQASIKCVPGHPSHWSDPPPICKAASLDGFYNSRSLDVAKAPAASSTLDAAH

T4: rSEZ6-ECD-His (rat, UniProt Q7TSK2 20-922 (mouse entry))
T4 construct: the whole entry is named; also called rat recombinant SEZ6-His; rat SEZ6 ECD
T4 chain: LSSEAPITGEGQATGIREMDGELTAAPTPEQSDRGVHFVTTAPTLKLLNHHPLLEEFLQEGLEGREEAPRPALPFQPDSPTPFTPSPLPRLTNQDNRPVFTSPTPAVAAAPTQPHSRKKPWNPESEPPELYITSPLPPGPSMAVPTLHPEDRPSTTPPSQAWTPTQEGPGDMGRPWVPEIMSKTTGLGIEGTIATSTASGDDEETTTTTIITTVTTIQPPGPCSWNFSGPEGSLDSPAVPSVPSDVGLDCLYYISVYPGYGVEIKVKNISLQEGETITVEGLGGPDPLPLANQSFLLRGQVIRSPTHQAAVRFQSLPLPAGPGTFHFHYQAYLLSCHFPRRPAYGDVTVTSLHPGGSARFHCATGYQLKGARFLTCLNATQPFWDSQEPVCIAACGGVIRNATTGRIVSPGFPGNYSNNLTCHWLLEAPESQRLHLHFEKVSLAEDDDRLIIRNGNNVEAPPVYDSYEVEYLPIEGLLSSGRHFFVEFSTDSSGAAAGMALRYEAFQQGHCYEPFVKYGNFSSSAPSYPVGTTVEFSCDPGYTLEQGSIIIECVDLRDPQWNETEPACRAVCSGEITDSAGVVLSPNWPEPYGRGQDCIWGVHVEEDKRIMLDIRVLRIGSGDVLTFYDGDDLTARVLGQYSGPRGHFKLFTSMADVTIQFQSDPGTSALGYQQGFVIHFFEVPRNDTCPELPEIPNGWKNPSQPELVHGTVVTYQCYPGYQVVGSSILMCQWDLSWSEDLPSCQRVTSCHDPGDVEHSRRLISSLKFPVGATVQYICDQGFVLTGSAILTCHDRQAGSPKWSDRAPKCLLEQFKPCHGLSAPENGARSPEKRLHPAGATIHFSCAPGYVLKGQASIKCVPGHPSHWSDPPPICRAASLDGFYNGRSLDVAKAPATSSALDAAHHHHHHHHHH

T5: SEZ6 CUB Domain 1 (aa 397-508) on yeast (human, UniProt Q53EL9 416-527)
T5 construct: yeast display
T5 sequence: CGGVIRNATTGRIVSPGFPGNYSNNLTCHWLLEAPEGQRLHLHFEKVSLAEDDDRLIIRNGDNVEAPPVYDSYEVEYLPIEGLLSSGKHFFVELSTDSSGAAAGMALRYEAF


Assays:
[1] = molecular target: T6, SEZ6 Sushi Domain 1 (amino acids 336-395) on yeast (human, UniProt Q53EL9 355-414); assay: yeast display, flow cytometry;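 note: antibody binding to individual SEZ6 domains displayed on yeast, measured by flow cytometry, antibody at 50 nM purified or hybridoma supernatant diluted 1:2, 90 min on ice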
T6 construct: yeast display

[2] = molecular target: T7, mouse SEZ6 on Neuro2a cells (mouse, UniProt Q7TSK2 20-991); assay: flow cytometry on Neuro2a cells expressing mouse SEZ6
T7 construct: endogenous on Neuro2a cells; also called murine SEZ6; mSEZ6

[3] = molecular target: T1, rat SEZ6 on RIN-m5F cells; assay: flow cytometry on RIN-m5F cells expressing rat SEZ6, verified by BLI or SPR on rat SEZ6-His
human SEZ6L2 ECD-His = molecular target: T8, human SEZ6L2 ECD-His (human, UniProt Q6UXD5 28-843); assay: ELISA on plates coated with SEZ6L2 protein
T8 construct: whole entry named

human SEZ6L ECD-His = molecular target: T2, human SEZ6L ECD-His; assay: ELISA on plates coated with SEZ6L protein
[4] = molecular target: T3, extracellular domain of cynomolgus SEZ6 …; assay: flow cytometry on yeast displaying the extracellular domain of cynomolgus SEZ6
hSEZ6-ECD-His = molecular target: T9, hSEZ6-ECD-His (human, UniProt Q53EL9 20-925); assay: bio-layer interferometry (ForteBio RED) or surface plasmon resonance (Biacore 2000) on human SEZ6-His; the table does not say which; column Hu Affinity (Kd, nM)
T9 construct: the whole entry is named; also called recombinant SEZ6-His; human recombinant SEZ6-His

rSEZ6-ECD-His = molecular target: T4, rSEZ6-ECD-His; assay: bio-layer interferometry (ForteBio RED) or surface plasmon resonance (Biacore 2000) on rat SEZ6-His; the table does not say which; column Rat XR (Kd, nM)
[5] = molecular target: T5, SEZ6 CUB Domain 1 (aa 397-508) on yeast; assay: yeast display, flow cytometry;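 note: antibody binding to individual SEZ6 domains displayed on yeast, measured by flow cytometry, antibody at 50 nM purified or hybridoma supernatant diluted 1:2, 90 min on ice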
[6] = molecular target: T10, SEZ6 Sushi Domain 3 (amino acids 690-748) on yeast (human, UniProt Q53EL9 709-767); assay: yeast display, flow cytometry;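 note: antibody binding to individual SEZ6 domains displayed on yeast, measured by flow cytometry, antibody at 50 nM purified or hybridoma supernatant diluted 1:2, 90 min on ice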
T10 construct: yeast display

T8 sequence (Q6UXD5 other isoform, or with tags, fused parts or gaps): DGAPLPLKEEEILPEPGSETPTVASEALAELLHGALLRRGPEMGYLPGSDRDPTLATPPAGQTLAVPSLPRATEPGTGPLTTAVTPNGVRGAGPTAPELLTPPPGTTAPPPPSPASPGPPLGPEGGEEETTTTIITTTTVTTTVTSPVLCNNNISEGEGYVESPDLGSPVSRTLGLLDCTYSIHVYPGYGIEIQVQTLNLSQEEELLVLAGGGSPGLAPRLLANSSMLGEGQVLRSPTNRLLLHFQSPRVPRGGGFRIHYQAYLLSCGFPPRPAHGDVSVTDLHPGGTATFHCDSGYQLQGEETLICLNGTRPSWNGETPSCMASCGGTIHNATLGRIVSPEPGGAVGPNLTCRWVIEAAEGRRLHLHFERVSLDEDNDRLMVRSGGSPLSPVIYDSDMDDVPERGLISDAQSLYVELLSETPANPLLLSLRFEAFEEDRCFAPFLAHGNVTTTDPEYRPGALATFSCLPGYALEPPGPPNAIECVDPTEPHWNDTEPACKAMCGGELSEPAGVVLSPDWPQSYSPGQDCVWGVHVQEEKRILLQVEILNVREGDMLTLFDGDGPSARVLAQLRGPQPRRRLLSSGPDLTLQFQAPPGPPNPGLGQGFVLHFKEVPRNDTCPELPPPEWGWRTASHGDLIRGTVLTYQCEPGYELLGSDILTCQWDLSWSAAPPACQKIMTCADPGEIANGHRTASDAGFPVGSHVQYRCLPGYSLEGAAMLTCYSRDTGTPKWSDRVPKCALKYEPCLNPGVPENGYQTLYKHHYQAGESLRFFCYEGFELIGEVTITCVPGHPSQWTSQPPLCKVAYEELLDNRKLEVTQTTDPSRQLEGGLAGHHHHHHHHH

| binding result (human SEZ6L2 ECD-His) | binding result (human SEZ6L ECD-His) | binding result [4] | binding result [5] | Binder | other results |
| --- | --- | --- | --- | --- | --- |
| no binding (tested: 1 µg/mL) | no binding (tested: 1 µg/mL) | no binding (tested: 5 µg/mL) |  | SC17.46 (antibody, V domains shown, murine mAb) VH: QVQLQQPGAELVKPGASMKLSCKASGYTFTSYWINWVKQRPGQGLEWIGNIFPDTTTTNYNEKFKSKATLTVDTSSSTAYMQLSSLTSDDSAVYYCAREYYDGTYDAMDYWGQGTSVTV VL: SFVMTQTPKFLLVSAGDRVTITCKASQSVNNDVAWYQQKPGQSPKLLIYYASNRYTGVPDRFTGSGYGTDFTFTISTVQAEDLAVYFCQQDYSSPRTFGGGTKLEIK | binding result [1]: binds; binding result [2]: no binding (tested: 5 µg/mL); binding result [3]: no binding (tested: 5 µg/mL) |
| no binding (tested: 1 µg/mL) | no binding (tested: 1 µg/mL) | no binding (tested: 5 µg/mL) |  | SC17.42 (antibody, V domains shown, murine mAb) VH: DVKLVESGGGLVRPGGSLKLSCAASGFTFSRYTMSWVRQTPEKRLEWAATINSGGSNTYYPDSVKGRFTISRDNAKNTLFLQMSSLKSEDTAMYYCTNGNHWGQGTTLTVSS VL: ENVLTQSPAIMSASPGEKVTMTCSASSSVNYMYWYQQKSSTSPKLWIYDTSKLTSGVPGRFSGSGSGNSYSLTISNMEAEDVATYYCFQGSGYPLTFGSGTKLEIK | Kd (hSEZ6-ECD-His): 2.7 nM; Kd (rSEZ6-ECD-His): 3 nM |
|  |  |  | binds | SC17.76 (antibody, V domains shown, murine mAb) VH: EVQLVESGGDLVKPGGSLKLSCVASGFTFSSYGMSWVRQTPDKRLEWVATISSGGTFTYYPDSVKGRFTVSRDNAKNTLYLQMSSLKSEDTAMYYCSRHGWGWGQGTLVTVSA VL: DIVITQDELSNPVTSGESVSISCRSSKSLLYKDGKTYLNWFLQRPGQSPQLLIYLMSTRASGVSDRFSGSGSGTDFTLEISRVKAEDVGVYYCQQLVEYPRTFGGGTKLEIK |  |
|  |  |  | binds | SC17.122 (antibody, V domains shown, murine mAb) VH: EVHLVESGGDLVKPGGSLKLSCAASGFTFSSYGMSWVRQTPDKRLEWVATISSGGTYTYYPDSVKGRFTISRDNAKNTLYLQMSSLKSEDTAMYYCSRHGWGWGQGTLVTVSA VL: DIVITQDDLSNPVTSGESVSISCRSSKSLLYKDGKTYLNWFLQRPGQSPQLLIYLMSTRASGVSDRFSGSGSGTDFTLEISRVKAEDVGVYYCQQLVEYPRTFGGGTKLEIK |  |
|  |  |  |  | SC17.72 (antibody, V domains shown, murine mAb) VH: EVQLVESGGGLVKPGGSLKLSCAASGFTFSSYGMSWVRQTPEKRLEWVAAINSNGGSTYYPDTVKGRLTISRDNGKNTLYLQMSSLRSEDTALYYCVRDDGYYVFFAYWGQGTLVTVSA VL: DIQMTQTTSSLSASLGDRVTISCSASQGISNYLNWYQQKPDGTVKLLIYYTSSLHSGVPSKFSGSGSGTDYSLTISNLEPEDIATYYCQQYSKLPYTFGGGTKLEIK | binding result [6]: binds |
